# Assay results from patent US20220380463A1 (Adimab, published 2022).
# Positions count from the first letter of the chain named.
# B1: LAD5224_P03_A01 (ADI-26906) (antibody, V domains shown)
# VH: QVQLVQSGAEVKKPGASVKVSCKASGFNIKDYYMHWVRQAPGQRLEWMGWIDLENANTIYDAKFQGRVTITRDTSASTAYMELSSLRSEDTAVYYCARDAYGRYFYDVWGQGTLVTVSS
# VL: DIVMTQSPDSLAVSLGERATINCKSSQSLLNARTGKNYLAWYQQKPGQPPKLLIYWASTRESGVPDRFSGSGSGTDFTLTISSLQAEDVAVYYCKQSYSRRTFGGGTKVEIK
# notes: IgG; also called Ab1; parent clone
# B2: LAD9965_P01_H07 (ADI-48666) (antibody, V domains shown)
# VH: B1 VH
# VL: B1 VL with K36H
# notes: IgG; also called Ab177
# B3: SAD10318_P01_A02 (ADI-48581) (antibody, V domains shown)
# VH: B1 VH with G102H, R103H
# VL: B1 VL with G35H, Y38H, S99H, R100H
# notes: IgG; also called Ab237
# B4: SAD10318_P01_A03 (ADI-48587) (antibody, V domains shown)
# VH: B1 VH with A100H, G102H
# VL: B1 VL with K36H, Y98H, R100H
# notes: IgG; also called Ab36
# B5: SAD10318_P01_B01 (ADI-48574) (antibody, V domains shown)
# VH: B1 VH with F105H, V108H
# VL: B1 VL with R33H, K36H
# notes: IgG; also called Ab2
# B6: SAD10318_P01_B02 (ADI-48582) (antibody, V domains shown)
# VH: B1 VH with A100H, G102H
# VL: B1 VL with K36H, Y38H, Y98H, R100H
# notes: IgG; also called Ab248
# B7: SAD10318_P01_C01 (ADI-48575) (antibody, V domains shown)
# VH: B1 VH with G102H, F105H
# VL: B1 VL with R33H, G35H, Y98H, R100H
# notes: IgG; also called Ab113
# B8: SAD10318_P01_D01 (ADI-48576) (antibody, V domains shown)
# VH: B1 VH with G102H, V108H
# VL: B1 VL with R33H, Y38H, Y98H, R100H
# notes: IgG; also called Ab182
# B9: SAD10318_P01_D02 (ADI-48584) (antibody, V domains shown)
# VH: B1 VH with Y101H, G102H
# VL: B1 VL with Y38H, Y98H, R100H
# notes: IgG; also called Ab3
# B10: SAD10318_P01_D03 (ADI-48588) (antibody, V domains shown)
# VH: B1 VH with A100H, R103H
# VL: B1 VL with R33H, K36H, Y98H, R100H
# notes: IgG; also called Ab58
# B11: SAD10318_P01_E01 (ADI-48577) (antibody, V domains shown)
# VH: B1 VH with Y101H, G102H
# VL: B1 VL with R33H, T34E, Y98H, R100H
# notes: IgG; also called Ab193
# B12: SAD10318_P01_F01 (ADI-48578) (antibody, V domains shown)
# VH: B1 VH with R103H, V108H
# VL: B1 VL with R33H, Y38H, S99H, R100H
# notes: IgG; also called Ab204
# B13: SAD10318_P01_F02 (ADI-48585) (antibody, V domains shown)
# VH: B1 VH with Y101H, R103H
# VL: B1 VL with R33H, Y38H, Y98H, R100H
# notes: IgG; also called Ab14
# B14: SAD10318_P01_F03 (ADI-48589) (antibody, V domains shown)
# VH: B1 VH with Y101H, V108H
# VL: B1 VL with R33H, K36H, R100H
# notes: IgG; also called Ab80
# B15: SAD10318_P01_G01 (ADI-48579) (antibody, V domains shown)
# VH: B1 VH with Y101H, R103H
# VL: B1 VL with N31H, R33H, Y98H, R100H
# notes: IgG; also called Ab215
# B16: SAD10318_P01_G02 (ADI-48586) (antibody, V domains shown)
# VH: B1 VH with G102H, R103H
# VL: B1 VL with Y38H, R100H
# notes: IgG; also called Ab25
# B17: SAD10318_P01_G03 (ADI-48590) (antibody, V domains shown)
# VH: B1 VH with R98H, R103H
# VL: B1 VL with R33H, K36H, S99H, R100H
# notes: IgG; also called Ab91
# B18: SAD10318_P01_H01 (ADI-48580) (antibody, V domains shown)
# VH: B1 VH with Y101H, G102H
# VL: B1 VL with R33H, Y38H, S99H, R100H
# notes: IgG; also called Ab226
# B19: SAD10318_P01_H03 (ADI-48591) (antibody, V domains shown)
# VH: B1 VH with R98H, R103H
# VL: B1 VL with K36H, S71R, S99H, R100H
# notes: IgG; also called Ab102
# B20: SAD10318_P02_A05 (ADI-48595) (antibody, V domains shown)
# VH: B1 VH with A9T, G102H, V108H
# VL: B1 VL with A32S, R33H
# notes: IgG; also called Ab178
# B21: SAD10318_P02_B05 (ADI-48596) (antibody, V domains shown)
# VH: B1 VH with Y104H, V108H
# VL: B1 VL with R33H
# notes: IgG; also called Ab179
# B22: SAD10319_P06_H07 (ADI-57433) (antibody, V domains shown)
# VH: QVQLVQSGAEVKKPGASVKVSCKASGYTFVSYNMHWVRQAPGQRLEWMGSINAGDANTKYSQKFQGRVTITRDTSASTAYMELSSLRSEDTAVYYCARDHYGHYFYDVWGQGTLVTVSS
# VL: B1 VL
# notes: IgG; also called Ab163
# B23: SAD10319_P06_H08 (ADI-57434) (antibody, V domains shown)
# VH: QVQLVQSGAEVKKPGASVKVSCKASGYTFESYDMHWVRQAPGQTLEWMGWIDAGTGATTYSQKFQGRVTITRDTSASTAYMELSSLRSEDTAVYYCARDAYHHYFYDVWGQGTLVTVSS
# VL: B1 VL
# notes: IgG; also called Ab164
# B24: SAD10319_P06_H10 (ADI-57435) (antibody, V domains shown)
# VH: B23 VH with Q43P, T44R, A57N, T59K, R72A, T74E, A76T, A100H, H102G
# VL: B1 VL
# notes: IgG; also called Ab165
# B25: SAD10319_P06_H11 (ADI-57436) (antibody, V domains shown)
# VH: B22 VH with V30T, S31D, N33D, Q43H, S50W, N57A, K59V, H100A, V108H
# VL: B1 VL
# notes: IgG; also called Ab166
# B26: LAD9956_P01_C03 (ADI-57440) (antibody, V domains shown)
# VH: B1 VH
# VL: B1 VL with R33H, G35H
# notes: IgG; also called Ab171
# B27: LAD9963_P01_E06 (ADI-57443) (antibody, V domains shown)
# VH: B1 VH
# VL: B1 VL with R33H
# B28: LAD9966_P01_A08 (ADI-57445) (antibody, V domains shown)
# VH: B1 VH
# VL: B1 VL with Y38H
# notes: IgG; also called Ab176
# Molecular target: T1, human CD3 on CD3+ Jurkat cells (human, UniProt P07766 23-207)
# T1 construct: whole, on cells; Native CD3 complex on cells; the other CD3 chains are not specified for this assay; also called Human CD3+ Jurkat
# T1 sequence (P07766 23-207): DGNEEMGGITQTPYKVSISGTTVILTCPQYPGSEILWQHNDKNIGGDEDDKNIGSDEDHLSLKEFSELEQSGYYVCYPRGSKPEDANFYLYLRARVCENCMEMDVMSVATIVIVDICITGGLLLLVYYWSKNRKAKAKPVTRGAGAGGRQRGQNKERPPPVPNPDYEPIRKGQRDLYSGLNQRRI
# Assay: flow cytometry on CD3+ Jurkat cells, ratio of MFI at pH 6.0 to pH 7.4
# Method: (§1) Specificity of the anti-CD3 antibodies for human CD3+ Jurkat cells compared to CHO-S cells at pH 6.0 and 7.4 was determined using a FACS cell binding assay. Briefly, CD3+ human Jurkat cells and CHO-S cells were thawed and washed with cold PBSF buffer, pH 7.4 (PBS+0.1% BSA, pH 7.4). About 200,000 cells were aliquoted per well of a 96-well plate and pelleted by centrifugation (5 minutes at 500×g). The cells were washed with either PBSF pH 7.4 or PBSF pH 6.0 (PBS+0.1% BSA, pH 6.0), and then resuspended in 100 ul in either PBSF pH 7.4 or PBSF pH 6.0 with IgG antibody produced in yeast (100 nM). The mixture (cells+antibody) was incubated for 20 minutes on ice, then washed twice with either PBSF pH 7.4 or PBSF pH 6.0. Cells were resuspended in 50 ul of propidium iodide (1:500 dilution) and anti-human IgG-RPE (1:100 dilution) prepared in either PBSF pH 7.4 or PBSF pH 6.0, then incubated for 20 minutes on ice in the dark before cells were washed twice with either PBSF pH 7.4 or PBSF pH 6.0. Binding was analyzed on FACS Canto II.
# (§2) Cell binding assays. CD3+ human Jurkat cells (ATCC) and CHO-S cells (Invitrogen/ThermoFisher) were thawed and washed with cold PBSF buffer, pH 7.4 (PBS+0.1% BSA, pH 7.4). About 200,000 cells were aliquoted per well of a 96-well plate (FACS Assay Plate VWR BD 353263) and pelleted by centrifugation (5 minutes at 500×g). The cells were washed with either PBSF pH 7.4 or PBSF pH 6.0 (PBS+0.1% BSA, pH 6.0), and then resuspended in 100 ul in either PBSF pH 7.4 or PBSF pH 6.0 with IgG antibody (100 nM) produced in yeast as described above. The mixture (cells+antibody) was incubated for 20 minutes on ice, then washed twice with either PBSF pH 7.4 or PBSF pH 6.0. Cells were resuspended in 50 ul of propidium iodide (Roche; 1:500 dilution) and anti-human IgG-RPE (Southern Biotech; 1:100 dilution) prepared in either PBSF pH 7.4 or PBSF pH 6.0, then incubated for 20 minutes on ice in the dark before cells were washed twice with either PBSF pH 7.4 or PBSF pH 6.0. Binding was analyzed on FACS Canto II.
row,Binder,MFI pH 6.0/MFI pH 7.4
1,B1,1.1
2,B2,1.2
3,B3,45.5
4,B4,77.1
5,B5,23.7
6,B6,9
7,B7,38.4
8,B8,20.1
9,B9,23.9
10,B10,83.3
11,B11,73.1
12,B12,11.7
13,B13,8.5
14,B14,11
15,B15,6.8
16,B16,24.3
17,B17,60.3
18,B18,22.5
19,B19,31.6
20,B20,1.2
21,B21,0.6

# Molecular target: T1, human CD3 on CD3+ Jurkat cells
# Assay: flow cytometry, 100 nM IgG on CD3+ Jurkat cells, pH 6.0
# Method: as §1, §2
row,Binder,MFI pH 6.0
1,B1,6040 MFI
2,B2,5700 MFI
3,B3,1730 MFI
4,B4,5120 MFI
5,B5,3550 MFI
6,B6,326 MFI
7,B7,3110 MFI
8,B8,849 MFI
9,B9,2180 MFI
10,B10,4940 MFI
11,B11,5370 MFI
12,B12,418 MFI
13,B13,381 MFI
14,B14,5240 MFI
15,B15,2070 MFI
16,B16,1090 MFI
17,B17,1950 MFI
18,B18,933 MFI
19,B19,4430 MFI
20,B20,5980 MFI
21,B21,500 MFI

# Molecular target: T1, human CD3 on CD3+ Jurkat cells
# Assay: flow cytometry, 100 nM IgG on CD3+ Jurkat cells, pH 7.4
# Method: as §1, §2
row,Binder,MFI pH 7.4
1,B1,5270 MFI
2,B2,4800 MFI
3,B3,38 MFI
4,B4,66 MFI
5,B5,150 MFI
6,B6,36 MFI
7,B7,81 MFI
8,B8,42 MFI
9,B9,91 MFI
10,B10,59 MFI
11,B11,73 MFI
12,B12,36 MFI
13,B13,45 MFI
14,B14,475 MFI
15,B15,306 MFI
16,B16,45 MFI
17,B17,32 MFI
18,B18,41 MFI
19,B19,140 MFI
20,B20,4960 MFI
21,B21,828 MFI

# Molecular target: T2, Cynomolgus CD3εδ Fc heterodimer (Cy CD3ε Fc / CD3δ Fc-HIS) (cynomolgus, UniProt Q95LI8 22-100)
# T2 chain 1: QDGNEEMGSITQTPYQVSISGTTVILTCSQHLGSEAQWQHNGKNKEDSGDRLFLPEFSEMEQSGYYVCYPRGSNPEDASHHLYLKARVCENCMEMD
# T2 chain 2: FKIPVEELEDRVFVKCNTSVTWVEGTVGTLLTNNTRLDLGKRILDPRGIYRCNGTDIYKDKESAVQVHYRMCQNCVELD
# Assay: BLI (Octet), IgG on AHC sensor, pH 6.0
row,Binder,koff
1,B22,0.00901 s⁻¹
2,B23,0.0231 s⁻¹
3,B24,0.0267 s⁻¹
4,B25,0.0285 s⁻¹
5,B26,0.000913 s⁻¹
6,B27,0.000866 s⁻¹
7,B28,0.0035 s⁻¹
